Data from the supplement of paper PMC12042874.
± gives the uncertainty stated by the source.

Assay: amyloid nucleation score (Sup35N fusion, yeast selection) (log enrichment); library NNK3; higher = more nucleation; inactive = no reads after selection
How it was run: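 Three technical output replicates were used for random libraries. Psi-negative yeast expressing peptides of 20 random codons fused to Sup35N were induced with 100 μM copper sulfate for 24 hours and grown 7 days at 30°C on medium lacking adenine and uracil, and input and output plasmid inserts were Illumina-sequenced, excluding sequences with under 100 input reads. The nucleation score is the DiMSum log enrichment of output over input reads, centred on the mode score of non-aggregating sequences.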

| Substance | amyloid nucleation score |
| --- | --- |
| SFFARGVFFAIRQARQGNSG | inactive |
| LDKFHCRFYMQNSN | inactive |
| WEFAGVVYEWGVWKSVSGYG | 0.336 ± 0.3 |
| ADYLLSYACQSTLSHQKKRP | -0.854 ± 1.7 |
| NFRNRMRVLFSCS | inactive |
| AVLHMSCNWDKQFYNLLCFC | inactive |
| PQPARLDQGGYISDMYCYVI | -0.362 ± 1.3 |
| LSWIASSGKGWSTTMCISTM | inactive |
| SPLTARMADRRDTA | -0.134 ± 1.4 |
| WTLARFTSD | inactive |
| IRMYSIWREDVSRRKARCMW | inactive |
| LKRYDVQSSTGVNLTYGTYT | inactive |
| QCLIYLYVFVLPVLEFGMDR | inactive |
| TIIFRSYVELVDELWLDAAL | inactive |
| ATSCILMMDLSRYYVGLYHR | 0.88 ± 0.094 |
| FRNVGMLGSNLGFGINNDIN | inactive |
| MTLFDWFFLEIKAGWFRMVV | inactive |
| DMVSRSSCSDL | inactive |
| QSGSVCIGSHASLRRAVVRR | inactive |
| NRILGGNLYVNVIDRIGGMV | inactive |
| WMFRSAVFYGYVYALGCMRS | 0.924 ± 0.22 |
| LFSQHYWIVSIFIASWIRYC | inactive |
| SLMNPNFFLHMVIRTNCYLK | inactive |

| Substance | amyloid nucleation score |
| --- | --- |
| SQLRMFRVARVLIAEVNAP | inactive |
| TCHLILRVFGSYNMHGS | -0.024 ± 0.96 |
| TYLHDLYT | inactive |
| SGTNLFRF | inactive |
| YRDTICPYETAREDMNYLLG | inactive |
| SMFTAIASTTFNLQSLYLM | inactive |
| SIWSALSDLLLSKREE | inactive |
| NKIVNECWHLICSFKLGNLQ | inactive |
| GLCWRMLTFLWSFVSMENNG | -0.565 ± 1.1 |
| PSTDVILSANWDDRRSGLYG | inactive |
| TICPTFPVGGMNISNGSYTM | inactive |
| GSDVFTFRWGNMLRTCTTGR | inactive |
| PPTLQMVTVVGPKGWKVMFS | inactive |
| DFSSWSFYHYPLVGQSSYTS | inactive |
| VKTSQRSVTL | inactive |
| PHNLNGPS | -0.68 ± 1.9 |
| IFCMFYGSMQAQTIKCNVTH | 1.19 ± 0.093 |
| YRWYQINSGSYLYLASRWCW | inactive |
| IYGVRYWV | inactive |
| MIVNNELCTNLPYLSGAVNR | inactive |
| IMSSTGIFNLLRAESMCSLF | inactive |
| YDDVFFYSWVTFLRQLFDPL | inactive |
| RIRKRQCWSFVLLLYCGCVT | inactive |

| Substance | amyloid nucleation score |
| --- | --- |
| VESVRVLVINPNSDNQVLYL | inactive |
| IASAYLSVLRYPFRIAKGLI | inactive |
| TQNGGVNVIRFYLCDFLSGL | 2.87 ± 0.067 |
| IVNIKMNLWFYGNFMLWASS | inactive |
| FLVVVSF | inactive |
| VGYLCFLFQTDSFI | inactive |
| CTNCNAKAYPWGTVSMPREW | inactive |
| APKCNSTMCSCALMTLFLIS | 2.14 ± 0.085 |
| FSVVLYKRWWRTRMATGLLK | inactive |
| WVIIIYRYLFRNISAKQSRL | inactive |
| HVFFMKTEEPCTPEY | inactive |
| YLRGY | inactive |
| SGLSSRNSYTFVSKRVVGVR | inactive |
| VGAFLKLNRNLMTFSMARNY | inactive |
| ITQLFSSLRADYAAQYYLGV | inactive |
| CQPNWGWCSARIVLHILVLR | inactive |
| LLLSEREGIYVVWVWCRWPV | inactive |
| NDGFQYRGHRWCLYNHL | inactive |
| YRFFVKYMLLIYLINFNIFL | 0.057 ± 0.6 |
| VYYVNS | 0.492 ± 0.18 |
| NRVYA | inactive |
| IQIVSWQSAL | inactive |
| YYFTFFIKCMRNIMVNSMAA | inactive |

| Substance | amyloid nucleation score |
| --- | --- |
| ILDWG | 0.886 ± 0.15 |
| CGIRHTVLVVSRVGGYVWCL | -0.156 ± 1.1 |
| NSRFIMHHVGRAFDCDAYLF | -0.194 ± 0.8 |
| CSPGRIFHNGK | inactive |
| LSYYVFRYTNTHWSPCFYIE | inactive |
| VCNIAQ | inactive |
| FFKDSIVLGVSLRYQFSYLT | inactive |
| SLGISKSG | inactive |
| NKSYNDRARYVARGRDI | inactive |
| EENTVSSTAIKNVVYSQFQV | inactive |
| KVGAGIDIISFIRNLILALP | inactive |
| RRGRPVLCRLHPGRWLRSRR | -0.401 ± 1.8 |
| SQNAQESIPMRKFITPSRVF | inactive |
| CWRVYYLNVWVEVES | inactive |
| SPWYVVFMCNLIFYKGEFTR | inactive |
| LRKFFHLLQIIMERNINRSI | inactive |
| WGDIEVFFSYVVYLSIWRES | inactive |
| SAFKAKL | inactive |
| DLPSMSIVIVIQKLYARVNR | inactive |
| SRLNFVLVSMQD | inactive |
| KSWVIKLSGFVETWHRMD | inactive |
| YFSRMVKVRSNI | inactive |
| LGQFAIAQYFNRYSRGPMLW | inactive |

| Substance | amyloid nucleation score |
| --- | --- |
| YRYYCWNCCELGIDGTMWVA | -0.526 ± 0.45 |
| TSYKYDSNR | inactive |
| GHSEYLA | inactive |
| KLGIRPDRISVTWCLSNTTV | -0.473 ± 1.3 |
| SNTHLYCLMFRLPCRILDRK | inactive |
| IHRYGTRRYETLRGQHAPFP | -0.719 ± 1.4 |
| FDFRFYQVVVGGCRIETVIV | inactive |
| ASRIDINRIWFVFWIQAIKS | inactive |
| LRVLAP | 0.815 ± 0.16 |
| FFLCDRKNRRST | inactive |
| VNYSLQVNFVFRWARFKLWL | inactive |
| IIHGHHWFGYNSRLCC | inactive |
| TRLRSTPVLVVNW | inactive |
| SCGSDKSLFDDCIKPRSRHC | inactive |
| YQVVVGNFCLLHSVCI | 0.124 ± 0.38 |
| LQHWPRTFWMGSRYAYLFSL | inactive |
| WIHSGSSHWLNACDRMDMTK | -0.753 ± 1.3 |
| MCGQE | inactive |
| VIVASVVLKW | inactive |
| RAFMVSVSHCRMCWIWC | inactive |
| LGCTGALNNRCCERQANGRQ | inactive |
| YVYSVFFYRWW | inactive |
| VSRFVLLWMSNCWATYGLFR | inactive |

| Substance | amyloid nucleation score |
| --- | --- |
| ASVKGDRDDELSIKYVFGVG | inactive |
| YLNRLCLNTNISRAVRCY | inactive |
| LMLRVHGMW | inactive |
| VEIISFSVNKTFQAVFGVDK | 1.47 ± 0.072 |
| ALVAPKAGAFMSLKVQLGMP | 1.67 ± 0.073 |
| TNVSPLTPNT | inactive |
| YIINARPYVVVTDGLKDETA | inactive |
| IIGKRTSMVAITLFDINGSS | inactive |
| MSLRSSRHTPVDSQISSMEM | inactive |
| SCVARYDRAAHRRVIETRLG | inactive |
| GVVYWVIRKTIEGSLQFASI | inactive |
| YFIRVILPFQLTLVVIWYKF | inactive |
| RLRCLYTSEISVGIGNNWVS | inactive |
| VCYYVFRTDIIIVIRVDAWL | inactive |
| TYYRCSSANLSSGRAEVYKY | inactive |
| PFKFFW | inactive |
| NTIGNNVKYETRCNQSV | inactive |
| IYSHSPLFLRRYGAIYESCR | inactive |
| LLHHFFAVFDSARETKWDWD | 0.247 ± 0.34 |
| HTDIMIWFRSCYYFLSFFMY | inactive |
| RQCMKRLWDSCYKKAWIKYV | inactive |
| TPLFHWKNQVSRSFLVWNDL | inactive |
| LFVYHCYIFSMRSRCMSHLY | inactive |

| Substance | amyloid nucleation score |
| --- | --- |
| LNVCVMEKNSNLRWSYWDLC | 1.09 ± 0.15 |
| MRCQNSCRHS | inactive |
| IMANFVRMYLEYMMRAAVSL | inactive |
| QSEICLSWCIQSVGDVVDYR | inactive |
| GYGVCNNDKCVQDAPGQPVS | -0.357 ± 1.1 |
| HFCSGSINMMNFLSKDYKMQ | 2.39 ± 0.063 |
| SWDFAYLYELIYFRFMFQGC | inactive |
| TKIEVNS | inactive |
| LCCSCWLLIDCQWKDGYLEG | 1.91 ± 0.079 |
| GSGLPLTALRSTYVAAPHSE | inactive |
| VVCLFDVKFESARVLDLLSV | inactive |
| YSFAVPSNLLLLK | -0.302 ± 0.52 |
| KLAKHH | inactive |
| RTVIGLPASMLLSCDHISFV | inactive |
| HINARRLYFTYV | inactive |
| FKNRYFHLPCSDLLYHSLGR | inactive |
| VLLVF | inactive |
| ISGKCRIVAVESSCECSLSS | inactive |
| SVSHAE | inactive |
